The source of these data is US20140072563A1 (Regeneron, published 2014).

For assay [1], the target named is hErbB3.mmh (soluble monomeric human ErbB3 extracellular domain with C-terminal myc-myc-hexahistidine tag) (human, UniProt P21860 20-642). In words: SPR (Biacore), 25 C, mAb capture format. As for the experimental part:
(§1) (Tables 2-4). Measurements were conducted on a Biacore 2000 or T100 instrument. […] Kinetic association (kₐ) and dissociation (kd) rate constants were determined by processing and fitting the data to a 1:1 binding model using Scrubber 2.0 curve fitting software.
(In SPR one partner is held on a chip, and binding of the other changes the refractive index at the surface.)

The target of assay [2] is T1, hErbB3.mFc (soluble dimeric human ErbB3 extracellular domain fused to mouse Fc) (human).
T1 construct: called dimeric
T1 chain: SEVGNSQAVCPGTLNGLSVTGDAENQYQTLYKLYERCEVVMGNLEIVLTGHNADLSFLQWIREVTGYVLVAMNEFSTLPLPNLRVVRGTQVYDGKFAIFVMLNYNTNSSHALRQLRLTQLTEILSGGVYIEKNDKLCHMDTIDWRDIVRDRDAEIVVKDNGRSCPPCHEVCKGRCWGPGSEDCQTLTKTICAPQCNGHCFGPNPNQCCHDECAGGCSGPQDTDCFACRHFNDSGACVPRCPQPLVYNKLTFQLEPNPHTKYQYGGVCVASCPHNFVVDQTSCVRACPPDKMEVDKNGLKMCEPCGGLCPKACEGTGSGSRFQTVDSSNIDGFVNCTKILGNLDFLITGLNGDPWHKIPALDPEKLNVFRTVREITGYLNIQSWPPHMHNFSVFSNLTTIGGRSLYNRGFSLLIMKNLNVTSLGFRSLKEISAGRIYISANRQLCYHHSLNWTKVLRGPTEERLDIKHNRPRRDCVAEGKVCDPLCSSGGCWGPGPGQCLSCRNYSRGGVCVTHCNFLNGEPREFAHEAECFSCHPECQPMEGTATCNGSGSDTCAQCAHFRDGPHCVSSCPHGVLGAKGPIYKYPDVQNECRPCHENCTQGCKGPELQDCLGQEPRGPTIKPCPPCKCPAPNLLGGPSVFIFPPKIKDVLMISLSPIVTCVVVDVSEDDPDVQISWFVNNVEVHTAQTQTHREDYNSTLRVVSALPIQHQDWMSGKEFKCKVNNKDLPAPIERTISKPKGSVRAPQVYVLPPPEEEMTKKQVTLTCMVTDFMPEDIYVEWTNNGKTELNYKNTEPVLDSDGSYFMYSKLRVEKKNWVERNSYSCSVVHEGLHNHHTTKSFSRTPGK
In words: SPR (Biacore), 25 C, mAb capture format. As for the experimental part:
as §1

A further assay deals with T2, ErbB3-mFc (human).
T2 construct: Dimeric soluble ErbB3; also called hErbB3.mFc
T2 chain: T1 chain
In words: blocking ELISA: antibody (0-50 nM) + 50 pM ErbB3-mFc, binding to coated neuregulin1b. The text has this: To further characterize anti-hErbB3 mAbs of the present invention, their ability to block ligand binding was examined via ELISA. […] Plates were washed and non-sequestered (plate bound) ErbB3 was detected with an anti-Fc poly conjugated with horseradish peroxidase (HRP). Plates were developed with TMB (3,3′,5,5′-tetramethylbenzidine) and neutralized with sulfuric acid before reading absorbance at 450 nm on a Victor X5 plate reader. Data analysis used a sigmoidal dose-response model within Prism™ software. […] Maximal blocking for each antibody was calculated by taking the difference in absorbance from zero to 50 nM antibody on the inhibition curve, divided by the difference in absorbance from 50 pM to zero ErbB3 on the dose curve.

Changes are numbered by the printed parent chain. Names may count otherwise.

B1: H4H2151P (antibody, V domains shown)
VH: QVQLVESGGGVVQPGRSLRLSCAASGFTFSNYGMHWVRQAPGKGLEWVARIWYDGSNKYYADSVKGRFTISRDSSKNTLYLQMNSLRAEDTAVYYCAREGEQNLDYYPLDVWGQGTTVTVSS
VL: DIVMTQSPSSLSASVGDRVTITCRASQDIRNDLGWYQQKPGKAPKLLIYAASSLQTGVPSRFSGSVSGTDFTLTISSLQPEDFATYYCLQDYTYPLTFGGGTKVEIK
notes: Fully human, human IgG4 Fc (H4H prefix)
In assay [1], B1 displayed a Kd of 0.00942 nM, a T½ of 372 min, a dissociation rate constant (koff) of 2.86e-05 s⁻¹ and a kon of 3.04e+06 M⁻¹ s⁻¹. In assay [2], this molecule registered a Kd of 0.213 pM, a T½ of 7.77 days, a koff of 9.52e-07 s⁻¹ and a kon of 4.48e+06 M⁻¹ s⁻¹.

B2: H4H1819N (antibody, human IgG4, V domains shown)
VH: EVQLVESGGGVVRPGGSLRLSCAASGFTFDDYAMHWVRQAPGKGLEWVAGISWNSGSIDYADSVKGRFTISRDNAKNSLYLQMNSLRAGDTALYYCAKDILDLDYYGLDVWGQGTTVTVSS
VL: DIQMTQSPSSLSASVGDRVTITCRASQDISSYLAWYQQKPGKVPNLLIYDASSLQSGVPSRFSGSGSGTDFTLTLSSLQPEDFASYYCQNYNSAPYTFGQGTKLEIK
notes: Human IgG4 Fc (prefix H4H)
B2: in the assay with ErbB3-mFc, the IC50 was 0.02 nM and the “Maximal Blocking (%)” value was 99%.

B3: H4H1821N (antibody, human IgG4, V domains shown)
VH: EVQLVESGGGLVQPGRSLRLSCAASGFTFDDYAMHWVRQAPGKGLEWVSSISWNSGSIGYADSVKGRFTISRDNAKNSLYLQMNSLKPEDTALYYCTKDTDYGDYLDAFDIWGQGTMVAVAS
VL: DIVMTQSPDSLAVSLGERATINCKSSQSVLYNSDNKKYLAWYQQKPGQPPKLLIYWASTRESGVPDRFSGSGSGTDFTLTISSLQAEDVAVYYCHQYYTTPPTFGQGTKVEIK
notes: Human IgG4 Fc (prefix H4H); In the H/D exchange experiment it was covalently attached to NHS agarose beads
As for B3, in the assay with ErbB3-mFc, the 50% inhibitory concentration (IC50) was 0.018 nM and the “Maximal Blocking (%)” value amounted to 99%.

B4: H4H2092P (antibody, human IgG4, V domains shown)
VH: EVQLVESGGGVVRPGGSLRLSCAASGFTFEDYGMNWVRQVPGKGLEWVSGTNWNGGITGYTGSVKGRFTISRDNAKNSLYLQMNSLRAEDTALYHCARDSGDQDAFDIWGQGTMVTVSS
VL: DIQLTQSPSFLSASVGDRVTITCWASQDISSYLAWYQQKPGKAPKLLIYAASTFQSGVPSRFSGSGSGTEFTLTISNLQPEDFATYYCQQLDSYPLSFGGGTKVEIKR
notes: Human IgG4 Fc (prefix H4H)
In the case of B4, in the assay with ErbB3-mFc, the 50% inhibitory concentration (IC50) came to 0.0594 nM and the “Maximal Blocking (%)” value came to 100%.

B5: H4H2102P (antibody, human IgG4, V domains shown)
VH: EVQLVESGGGLVQPGGSLRLSCAASGFTFSNYDIHWVRQATGKGLEWVSAIGPAGDTYYSDSVKGRFTISREDAKNSLYLQMSSLRAGDTAVYYCASEGIAVRPDDYYGMDVWGQGTTVTVSA
VL: B4 VL with S30T, Q38K, F54L, N77S, T85A, D92N, S97T, E105D
notes: Human IgG4 Fc (prefix H4H)
Consider B5, for which, in the assay with ErbB3-mFc, the concentration for half-maximal inhibition (IC50) is 0.186 nM and the “Maximal Blocking (%)” value worked out at 90%.

B6: H4H2111P (antibody, human IgG4, V domains shown)
VH: QVQLVESGGGVVQPGRSLRLSCAASGFTFNNYGMHWVRQAPGKGLAWVAVMWYSESHKYYADSVKGRFTISRDNSKNTLYLEMNSLRVEDTAIYYCARDLGDPDAFDIWGQGTMVTVSS
VL: B4 VL with D28G, A50G, F54L, N77S, D92N, S97T
notes: Human IgG4 Fc (prefix H4H)
With B6, in the assay with ErbB3-mFc, the half-maximal inhibitory concentration (IC50) amounted to 0.0497 nM and the “Maximal Blocking (%)” value worked out at 92%.

B7: H4H2094P (antibody, human IgG4, V domains shown)
VH: EVQLVESGGGLVQPGGSLRLSCAASGFTFSSYDMHWVRQATGKGLEWVSAIGPAGDTYYPVSAMGRFTISRDDAKNSLYLQMNSLRAGDTAVYYCAREGVTIRPDDYFGLDVWGQGTTVTVSA
VL: B4 VL with D28G, S31D, Q38K, K45Q, S52T, F54L, N77S, D92N, S93T, S97T
notes: Human IgG4 Fc (prefix H4H)
With B7, in the assay with ErbB3-mFc, the half-inhibitory concentration (IC50) turned out to be 0.09 nM and the “Maximal Blocking (%)” value turned out to be 92%.

B8: H4H2154P (antibody, V domains shown)
VH: QVQLQESGPGLINPSQTLSVTCTVSGGSISSGGYYWTWIRQHPGKGLEWIGYISYSGNTNYNPSLKSRVTISVDTAKNQFSLKLSSVTAADTAVYFCARDSDVDTAMVDGIDIWGQGTMVTVSS
VL: DIQMTQSPSSVSASVGDRVTITCRASQDISSWLAWYQQKPGRAPKLLIYTASSLQSGVPSRFSGSGSGTDFTLTISSLQPEDFATYFCQQANSFPFTFGPGTKVDIKR
notes: as for B1
For B8, in assay [1], the Kd came to 0.0176 nM, the T½ is 285 min, the koff came out at 3.73e-05 s⁻¹ and the on-rate constant (kon) turned out to be 2.13e+06 M⁻¹ s⁻¹. Also, in assay [2], the affinity, expressed as Kd, was 0.3 pM; the T½ came out at 7.57 days; the off-rate (koff) was determined as 9.77e-07 s⁻¹; the on-rate constant (kon) was determined as 3.25e+06 M⁻¹ s⁻¹.

B9: H4H2108P (antibody, human IgG4, V domains shown)
VH: EVQLLESGGDLVQPGGSLRLSCATSGFSFSSDAMNWVRQAPGKGLEWVSGISGSGGNTYYADSVKGRFTISRDISKSTLSLQMNSLRAEDTAVYYCAKEGTNMVRGVVMEDNGMDVWGQGTTVTVSA
VL: B8 VL with D28G, S31D, W32Y, R42K, T50A, S65R, S77T, F87Y, F96L, P100G
notes: Human IgG4 Fc (prefix H4H)
With B9, in the assay with ErbB3-mFc, the IC50 stood at 0.116 nM and the “Maximal Blocking (%)” value amounted to 91%.

B10: H4H2290P (antibody, V domains shown)
VH: EVQLLESGGGLVQPGGSLRLSCVASGFTFSSFAMSWVRQAPGKGLEWVSVISGSGGSTNHADSVRGRFTISRDNSLNTVYLQMHSLRAEDTALYYCVKAETSSSYFYYGMDVWGQGTTVTVSS
VL: DIQLTQSPSFLSASVGDRVTITCWASQDISSYLAWYQQKPGKVPNLLIYGASSLQPGVPSRFSGSGSGTEFTLTISSLQPEDFATYYCQQLNNYPTFGGGTKLEIKR
notes: as for B1
As to B10, in assay [1], binding was put at a Kd of 0.115 nM, the T½ is 159 min, the off-rate (koff) stood at 6.72e-05 s⁻¹ and the kon worked out at 582000 M⁻¹ s⁻¹. In assay [2], this molecule displayed a Kd of 14 pM, a T½ of 0.656 days, a koff of 1.13e-05 s⁻¹ and a kon of 800000 M⁻¹ s⁻¹.

B11: H4H2084P (antibody, human IgG4, V domains shown)
VH: QVQLVESGGGVVQSGKSLRLSCVASGFTFSNYGMHWVRQTPGKGLEWVARIWFDGTNKYYTDSVKGRFTLSRDSSKNTLYLQMNSLRAEDTAVYFCAREESLELDHYVMDVWGQGTTVTVSS
VL: AIQMTQSPSSLSASVGDRVTITCRASQDIRDDLGWFQQKPGKAPNLLIYAASSLQSGVPSRFSGSGSGTDFTLTISSLQPEDFATYYCLQDYNYPLTFGGGTKVEIKR
notes: Human IgG4 Fc (prefix H4H)
Consider B11, for which, in the assay with ErbB3-mFc, the IC50 worked out at 0.0873 nM and the “Maximal Blocking (%)” value came to 95%.

B12: H4H2153P (antibody, V domains shown)
VH: QVQLVQSGAEVKKPGASVKVSCKASGYTFTRYGISWVRQAPGLGLEWMGWISAYDGYTNFAQKFQGRFTMTTDTSTNTAYMELRGLRSDDTAVYYCAREEEDAAFDIWGQGTMVTVSS
VL: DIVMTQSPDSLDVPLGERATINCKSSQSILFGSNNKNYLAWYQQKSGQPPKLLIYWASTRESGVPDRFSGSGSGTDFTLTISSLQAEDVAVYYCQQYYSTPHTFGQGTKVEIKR
notes: as for B1
In assay [1], B12 yielded a Kd of 0.0117 nM, a T½ of 311 min, a koff of 3.43e-05 s⁻¹ and an association rate constant (kon) of 2.94e+06 M⁻¹ s⁻¹. In addition, in assay [2], the Kd was found to be 0.337 pM, the T½ amounted to 5.97 days, the off-rate (koff) worked out at 1.24e-06 s⁻¹ and the kon was 3.67e+06 M⁻¹ s⁻¹.

B13: H4H2098P (antibody, human IgG4, V domains shown)
VH: QVQLVESGGGVVQPGRSLRLSCAASGFTFSSFGMHWVRQAPGKGLEWVAVIWYVEINKYHADSVKGRFTISRDDSKNTVYLQMNSLRAEDTAVYYCARDWNDGDYGMDVWGQGTTVTVSS
VL: DIQLTQSPSFLSASVGDRVTITCWASQGISSFLAWYQQKAGKAPRLLIYAASTLQTGVPSRFSGSGSGTEFTLTISSLQPGDFATYHCQQLNSYPYTFGQGTKLEIKR
notes: Human IgG4 Fc (prefix H4H)
Regarding B13, in the assay with ErbB3-mFc, the IC50 is 0.135 nM and the “Maximal Blocking (%)” value turned out to be 95%.

Usually Kd stands for the concentration at which binding is half-saturated. A low value points to tighter binding. As a reminder, the koff is the first-order rate constant of dissociation. A higher koff goes with fast dissociation. Usually kon stands for a measure of how fast the partners come together. One may read the IC50 as the concentration needed to halve the response being measured.
